One block for each molecule: values may come before it.
Legend:
[1] = biological target: S. rosetta caveolin (Salpingoeca rosetta); test: cryo-EM structure; single-particle cryo-EM of the complex purified in C12M detergent; C11 symmetry applied in the final refinement
[2] = biological target: the molecule itself; test: as above

stoichiometry N [1]: 11
Molecule: S. rosetta caveolin (natural protein)

B1: S. purpuratus caveolin (natural protein, Strongylocentrotus purpuratus, UniProt A0A7M7T4C2 1-159, looked up)
chain: MELIHPENGPSGTVQVPLIQGVDQSDTEDVYRLSPHVTTGFADTFKESNDIMGFSFMEKVNGAIYKYTHFAFYAVLNLLLAPFIAFSFGLSFAVMHFAVVWFVQPIMKLYYVWLRVFNLAYEPALRLVCDPIHRSIALILSGIKGQFKMNSSDVKTSQV
notes: caveolin of Strongylocentrotus purpuratus (purple sea urchin), UniProt A0A7M7T4C2, entire polypeptide (residues 1-159); residues 29-152 modelled in the cryo-EM map; Cloned between NdeI and XhoI of pET20b(+) with a reverse primer without stop codon, so the His tag is probably C-terminal (surmised); also called Strongylocentrotus purpuratus caveolin; Type I-CAV; source: E. coli BL21, purified from …
stoichiometry N [2]: 11
